Source: patent US20250257126A1 (CAMBRIDGE ENTERPRISE, published 2025)
Each block holds one binder with its values, some of them ahead of it.

Legend:
[1] = target: T1, RAD-displayed Fragment 1A of human LGR5 (human); assay: bio-layer interferometry (Octet), captured RAD-displayed fragment
T1 construct: also called Frag1A
T1 sequence (O75473 22-37, looked up): GSSPRSGVLLRGCPTH

[2] = target: T2, α-LGR5 epitope peptide (human); assay: bio-layer interferometry (Octet), scFv absorbed to Ni-NTA biosensors, epitope peptide SEQ ID NO: 210 added; scFv fragment, not whole IgG
T2 construct: Peptide added to scFv-α-LGR5 absorbed on Ni-NTA biosensors; also called the peptide
T2 peptide: SSPRSGVLLRGCPTHCHC
Protocol: Binding affinities were determined by bio-layer interferometry measurements using the Octet platform.
Binding affinity was determined by biolayer interferometry on the Octet platform.

[3] = target: T3, endogenous human LGR5 of cancer cell lines (human, UniProt O75473 22-907); assay: cell-based or functional assay
T3 sequence: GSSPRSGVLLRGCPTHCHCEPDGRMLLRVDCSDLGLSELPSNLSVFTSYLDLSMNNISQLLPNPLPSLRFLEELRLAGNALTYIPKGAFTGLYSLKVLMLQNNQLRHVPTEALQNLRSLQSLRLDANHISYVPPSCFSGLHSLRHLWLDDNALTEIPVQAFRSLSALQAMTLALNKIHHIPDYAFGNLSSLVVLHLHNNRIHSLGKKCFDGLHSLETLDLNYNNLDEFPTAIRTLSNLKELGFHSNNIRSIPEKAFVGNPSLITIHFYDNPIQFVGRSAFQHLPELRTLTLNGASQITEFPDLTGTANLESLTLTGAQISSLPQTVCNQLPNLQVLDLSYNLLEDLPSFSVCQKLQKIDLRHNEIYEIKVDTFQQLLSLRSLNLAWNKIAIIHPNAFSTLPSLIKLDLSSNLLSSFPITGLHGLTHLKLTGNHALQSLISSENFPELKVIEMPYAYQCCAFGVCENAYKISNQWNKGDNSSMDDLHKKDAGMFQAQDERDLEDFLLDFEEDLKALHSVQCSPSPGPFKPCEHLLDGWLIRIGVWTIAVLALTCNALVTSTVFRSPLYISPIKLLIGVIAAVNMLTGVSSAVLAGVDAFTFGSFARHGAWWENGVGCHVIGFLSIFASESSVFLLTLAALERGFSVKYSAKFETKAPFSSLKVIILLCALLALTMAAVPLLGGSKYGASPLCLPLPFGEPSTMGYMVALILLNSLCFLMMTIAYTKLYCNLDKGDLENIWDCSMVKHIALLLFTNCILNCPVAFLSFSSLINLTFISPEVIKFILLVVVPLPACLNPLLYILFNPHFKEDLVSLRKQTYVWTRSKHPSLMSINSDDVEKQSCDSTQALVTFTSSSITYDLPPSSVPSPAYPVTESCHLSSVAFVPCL

[4] = target: T4, murine LGR6 transgene (mouse, UniProt Q3UVD5 23-967); assay: western blot of lysates of HEK293T cells expressing the LGR transgenes
T4 construct: whole, on cells; also called mLGR6
T4 sequence (looked up): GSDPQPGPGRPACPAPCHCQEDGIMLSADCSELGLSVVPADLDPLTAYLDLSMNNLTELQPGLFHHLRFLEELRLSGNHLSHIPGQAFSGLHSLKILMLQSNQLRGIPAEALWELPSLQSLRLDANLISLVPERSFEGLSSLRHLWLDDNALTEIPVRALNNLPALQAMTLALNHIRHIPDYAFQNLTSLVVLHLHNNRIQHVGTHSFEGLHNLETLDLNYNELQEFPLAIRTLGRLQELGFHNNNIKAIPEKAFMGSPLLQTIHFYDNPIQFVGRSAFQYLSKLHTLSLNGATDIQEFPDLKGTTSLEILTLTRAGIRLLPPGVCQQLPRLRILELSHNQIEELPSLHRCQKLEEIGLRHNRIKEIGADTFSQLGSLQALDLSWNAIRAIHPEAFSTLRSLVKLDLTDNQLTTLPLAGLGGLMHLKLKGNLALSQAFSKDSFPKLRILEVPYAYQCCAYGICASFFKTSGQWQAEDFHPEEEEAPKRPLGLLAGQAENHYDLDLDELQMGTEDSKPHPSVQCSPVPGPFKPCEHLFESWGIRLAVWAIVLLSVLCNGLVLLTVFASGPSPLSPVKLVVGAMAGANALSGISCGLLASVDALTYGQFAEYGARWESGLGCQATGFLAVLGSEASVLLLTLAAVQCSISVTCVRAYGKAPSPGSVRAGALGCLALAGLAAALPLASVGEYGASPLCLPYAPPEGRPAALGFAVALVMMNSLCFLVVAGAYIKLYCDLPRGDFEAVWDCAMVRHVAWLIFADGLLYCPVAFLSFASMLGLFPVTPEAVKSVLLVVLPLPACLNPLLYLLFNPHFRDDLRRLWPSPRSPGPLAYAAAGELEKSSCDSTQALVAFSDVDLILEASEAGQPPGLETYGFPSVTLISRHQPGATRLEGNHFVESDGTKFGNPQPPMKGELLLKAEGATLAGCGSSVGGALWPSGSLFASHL

[5] = target: T1, RAD-displayed Fragment 1A of human LGR5; assay: bio-layer interferometry (Octet), captured RAD-displayed fragment, 10 µM Fragment 1 peptide included
[6] = target: T5, murine LGR5 transgene (mouse, UniProt Q9Z1P4 22-907); assay: flow cytometry of live HEK293T cells expressing LGR-eGFP transgenes, Fl-α-LGR5 against eGFP
T5 construct: whole, on cells; Overexpressed in HEK293T cells with N-terminal HA tag, V2 receptor tail and eGFP; also tested as lysate; also called mLGR5; mLGR5-eGFP
T5 sequence (looked up): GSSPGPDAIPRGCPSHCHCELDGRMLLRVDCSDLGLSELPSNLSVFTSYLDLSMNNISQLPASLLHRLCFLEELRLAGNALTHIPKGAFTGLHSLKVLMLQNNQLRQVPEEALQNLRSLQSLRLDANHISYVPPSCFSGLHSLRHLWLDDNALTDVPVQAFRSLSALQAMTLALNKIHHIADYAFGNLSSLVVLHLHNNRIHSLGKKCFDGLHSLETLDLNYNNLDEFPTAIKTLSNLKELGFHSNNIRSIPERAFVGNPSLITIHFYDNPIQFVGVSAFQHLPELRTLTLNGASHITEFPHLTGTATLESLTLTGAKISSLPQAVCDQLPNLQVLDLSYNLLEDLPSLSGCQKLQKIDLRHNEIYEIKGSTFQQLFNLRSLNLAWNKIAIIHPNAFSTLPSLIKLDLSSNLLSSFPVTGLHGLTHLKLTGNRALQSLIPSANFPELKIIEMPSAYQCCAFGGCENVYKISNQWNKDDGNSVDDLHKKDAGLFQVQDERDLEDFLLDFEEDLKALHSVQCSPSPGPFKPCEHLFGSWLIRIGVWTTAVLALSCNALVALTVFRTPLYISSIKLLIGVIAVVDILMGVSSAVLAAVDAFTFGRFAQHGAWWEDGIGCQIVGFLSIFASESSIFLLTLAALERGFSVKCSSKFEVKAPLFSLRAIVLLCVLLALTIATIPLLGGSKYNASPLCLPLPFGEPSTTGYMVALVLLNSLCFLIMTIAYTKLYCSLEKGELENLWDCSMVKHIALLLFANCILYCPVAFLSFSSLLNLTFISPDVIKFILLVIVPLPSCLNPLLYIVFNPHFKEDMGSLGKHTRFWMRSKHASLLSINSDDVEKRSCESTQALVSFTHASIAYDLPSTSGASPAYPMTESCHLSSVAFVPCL

[7] = target: T6, human LGR4 transgene (human, UniProt Q9BXB1 25-951); assay: as above
T6 construct: whole, on cells; Overexpressed in HEK293T cells with N-terminal HA tag, V2 receptor tail and eGFP; also tested as lysate; also called hLGR4; LGR4-eGFP

[8] = target: T7, human LGR6 transgene (human, UniProt Q9HBX8 25-967); assay: immunofluorescence of HEK293T cells expressing LGR-eGFP transgenes, stained with fluorescent clone 2
T7 construct: whole, on cells; Overexpressed in HEK293T cells with N-terminal HA tag, V2 receptor tail and eGFP; also tested as lysate; also called hLGR6; LGR6-eGFP
T7 sequence (looked up): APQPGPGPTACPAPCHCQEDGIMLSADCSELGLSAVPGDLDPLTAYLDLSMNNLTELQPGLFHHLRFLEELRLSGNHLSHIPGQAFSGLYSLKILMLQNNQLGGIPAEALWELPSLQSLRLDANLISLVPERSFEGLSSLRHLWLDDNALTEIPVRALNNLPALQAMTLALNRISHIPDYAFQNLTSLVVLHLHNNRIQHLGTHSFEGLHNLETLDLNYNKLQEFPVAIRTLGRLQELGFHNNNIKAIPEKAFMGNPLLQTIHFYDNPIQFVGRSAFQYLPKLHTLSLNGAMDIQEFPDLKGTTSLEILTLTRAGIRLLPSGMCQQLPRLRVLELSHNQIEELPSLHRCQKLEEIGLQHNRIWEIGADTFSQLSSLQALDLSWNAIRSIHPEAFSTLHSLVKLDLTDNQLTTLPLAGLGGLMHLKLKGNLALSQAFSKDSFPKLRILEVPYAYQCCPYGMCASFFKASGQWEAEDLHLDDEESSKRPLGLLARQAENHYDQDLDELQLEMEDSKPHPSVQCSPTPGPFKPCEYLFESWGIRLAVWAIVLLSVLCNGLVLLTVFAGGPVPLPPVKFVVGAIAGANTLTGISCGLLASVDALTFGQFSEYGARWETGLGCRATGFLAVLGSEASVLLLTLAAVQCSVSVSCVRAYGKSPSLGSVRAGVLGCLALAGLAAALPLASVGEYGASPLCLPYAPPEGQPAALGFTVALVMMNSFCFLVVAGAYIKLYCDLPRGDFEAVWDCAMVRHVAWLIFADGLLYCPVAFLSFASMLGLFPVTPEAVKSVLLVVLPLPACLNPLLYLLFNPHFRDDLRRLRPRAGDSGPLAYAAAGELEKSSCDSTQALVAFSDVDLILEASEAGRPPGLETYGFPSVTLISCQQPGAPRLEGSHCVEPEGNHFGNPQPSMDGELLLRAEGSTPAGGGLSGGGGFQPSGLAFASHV

[9] = target: T8, murine LGR4 transgene (mouse, UniProt A2ARI4 25-951); assay: western blot of lysates of HEK293T cells expressing HA-tagged LGR-eGFP transgenes, probed with hybridoma clone 2
T8 construct: whole, on cells; Overexpressed in HEK293T cells with N-terminal HA tag, V2 receptor tail and eGFP; also tested as lysate; also called mLGR4

Kd [1]: 2 nM
B1: α-LGR5 variant 4-ADC (antibody, human IgG1, kappa, V domains shown)
VH: QVQLVQSGAEVKKPGASVKVSCKASGYTFTNYWMQWVRQAPGQGLEWIGEIDPSDSYTNYNQKFQGRVTLTVDTSTSTAYMELSSLRSEDTAVYYCARSLSGYVDYWGQGTTVTVSS
VL: EIVMTQSPATLSLSPGERATLSCRASQDISNRLNWYQQKPGQAVRLLISYRSRRHTGIPARFSGSGSGTDYTLTISSLEPEDFAVYYCQQGNSLPPTFGGGTKLEIKR
modifications: MMAE coupled through a divinyl pyrimidine bridging linker inserted within the heavy chain-light chain disulphide linkages, drug-to-antibody ratio of 4
notes: ADC version of humanized variant 4 (clone 2.4); also called α-LGR5v4-ADC

Kd [1]: 3.4 nM
B4: α-LGR5 humanized (antibody, V domains shown)
VH: QVQLQQPGAELVKPGASVKLSCKASGYTFTNYWMQWVKQRPGQGLEWIGEIDPSDSYTNYNQKFKGKATLTVDTSSSTAYMQLSSLTSEDSAVYYCARSLSGYVDYWGQGTTLTVSS
VL: DIQMTQTTSSLSASLGDRVTISCRASQDISNRLNWYQQKPDGTVKLLISYRSRLHSGVPSRFSGSGSGTDYSLTISNLEQEDIATYFCQQGNSLPPTFGGGTKLEVR
notes: Direct transposition of the murine clone 2 variable domains into the human IgG scaffold; also called α-LGR5 humanised

Continued, binder first:

B2: scFv-α-LGR5 (scFv)
scFv: EIVMTQSPATLSLSPGERATLSCRASQDISNRLNWYQQKPGQAVRLLISYRSRRHTGIPARFSGSGSGTDYTLTISSLEPEDFAVYYCQQGNSLPPTFGGGTKLEIKGGGGSGGGGSGGGGSGGGGSQVQLVQSGAEVKKPGASVKVSCKASGYTFTNYWMQWVRQAPGQGLEWIGEIDPSDSYTNYNQKFQGRVTLTVDTSTSTAYMELSSLRSEDTAVYYCARSLSGYVDYWGQGTTVTVSS
notes: Made from human variant 4 (clone 2.4), VL-linker-VH; The protein in the Octet assay was 6xHis-tagged; also called scFv fragment; svFv-α-LGR5
Kd [2]: 0.77 nM

B3: α-LGR5 clone 2-ADC (antibody, mouse IgG2b, kappa, V domains shown)
VH: B4 VH
VL: DIQMTQTTSSLSASLGDRVTISCRASQDISNRLNWYQQKPDGTVKLLISYRSRLHSGVPSRFSGSGSGTDYSLTISNLEQEDIATYFCQQGNSLPPTFGGGTKLEVRR
modifications: MMAE coupled through a divinyl pyrimidine bridging linker inserted within the heavy chain-light chain disulphide linkages, drug-to-antibody ratio of 4
notes: cleavable linker version; also called α-LGR5-ADC
EC50 of cell killing, LoVo cells [3]: 9 nM
EC50 of cell killing, NALM6 cells, single dose, three days [3]: 4 nM
EC50 of cell killing, REH cells [3]: 10 nM
estimated EC50 for organoid cell apoptosis (cleaved caspase 3), CRC organoid line 1 [3]: ~5 nM
estimated EC50 for organoid cell apoptosis (cleaved caspase 3), CRC organoid line 2 [3]: ~100 nM
Kd [1]: 2.7 nM

B5: α-LGR5 clone 2 (antibody, mouse IgG2b, kappa, V domains shown)
VH: B4 VH
VL: B3 VL
notes: Murine monoclonal antibody; In immunofluorescence and flow cytometry it carried a fluorophore (Alexa647 or DyLight 650) and is given as FI-α-LGR5 / FL-α-LGR5; also called a-LGR5; hybridoma clone 2
binding result [4]: no binding
Kd [5]: 1.1 nM
binding result [6]: no binding
binding result [7]: no binding
binding result [8]: no binding
binding result [9]: no binding
